The supplement of paper PMC10126150
± gives the standard deviation of the averaged measurements.

Tested on: ATP
Assay: switch fluorescence ratio, 500 uM ATP over buffer (Cy3 cluster intensity, sum of 5 cycles each) (fold (ratio)); higher = stronger signal-on switching upon ATP binding; sequences stand for … in TCGTCGGCAGCGTCAGATGTGTATAAGAGACAGTTTTTTTTTTTTTTTTTTTTTTTTT…TC
Details: aptamer strand: ATP DNA aptamer (quencher-CACCTGGGGGAGTATTGCGGAGGAAGG + anchor), 100 nM annealed; ATP concentration: 500 uM
How it was run: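 Per cluster, summed Cy3 intensity from the target cycles was divided by that from the buffer cycles to give the fluorescence ratio, then averaged per switch-domain sequence. Clusters outside 100-1000 RFU were excluded. The Cy3-labelled switching-strand clusters, on a modified Illumina MiSeq flow-cell, were annealed to 100 nM quencher-labelled ATP aptamer and imaged in selection buffer, then after 15 min with 500 uM ATP at 22 °C, for five cycles with NaOH stripping and re-annealing between them.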
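Note: ATP exposure 15 min at 22 °C before imaging.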

Sequence	switch fluorescence ratio
AGGAATAAGC	1.01 ± 0.012
AGGAATCGGG	0.993 ± 0.047
AGGACAAATC	0.985 ± 0.026
AGGACCAGCA	1.024 ± 0.0075
AGGACGATGG	1.1 ± 0.16
AGGACTCGGG	1.04 ± 0.068
AGGAGAATCT	1 ± 0.025
AGGAGAGCTT	1.02 ± 0.012
AGGAGAGGGA	0.995 ± 0.038
AGGAGATAAA	0.983 ± 0.015
AGGAGCAGCG	0.919 ± 0.03
AGGAGCAGGG	1 ± 0.05
AGGAGCGCGG	1.027 ± 0.003
AGGAGCGGCA	1.018 ± 0.0095
AGGAGCTGAA	0.987 ± 0.021
AGGAGCTTTC	1.08 ± 0.039
AGGAGGAGTA	0.968 ± 0.019
AGGAGGATGT	0.98 ± 0.01
AGGAGGCATT	1.02 ± 0.02
AGGAGGGAAC	0.9916 ± 0.0016
AGGAGGGATA	1.04 ± 0.015
AGGAGGGCTG	0.984 ± 0.011
AGGAGGGGAT	1.02 ± 0.045
AGGAGGGGG	0.989 ± 0.049
AGGAGGGGTC	1.01 ± 0.048

Sequence	switch fluorescence ratio
AGGAGGGTTT	0.999 ± 0.032
AGGAGGTTGG	0.998 ± 0.017
AGGAGTAATC	1.04 ± 0.072
AGGAGTAATT	1.01 ± 0.024
AGGAGTATGG	1.02 ± 0.015
AGGAGTCGTT	1.02 ± 0.044
AGGAGTGGCG	0.97841 ± 0.00086
AGGAGTTTTT	0.98 ± 0.03
AGGATAAAGG	1.03 ± 0.036
AGGATACTTT	0.9793 ± 0.0038
AGGATATATT	0.976 ± 0.0099
AGGATCGGCG	0.9769 ± 0.0046
AGGATGGTAT	1.003 ± 0.01
AGGATTAGCT	0.999 ± 0.042
AGGATTGGGG	1 ± 0.043
AGGCAAGGGG	1.04 ± 0.069
AGGCAATGTC	1.48 ± 0.17
AGGCAATGTT	1.05 ± 0.013
AGGCACGCTG	1.02 ± 0.014
AGGCACGTCG	1.021 ± 0.009
AGGCAGAACG	1.048 ± 0.0058
AGGCAGGCGG	1.01 ± 0.073
AGGCAGTGTC	1.04 ± 0.05
AGGCAGTTTC	0.988 ± 0.049
AGGCATATGG	0.993 ± 0.057

Sequence	switch fluorescence ratio
AGGCATGATG	1.0051 ± 0.00033
AGGCCCTAGG	1.046 ± 0.0036
AGGCCGAGGA	0.991 ± 0.018
AGGCCGGAAT	1.27 ± 0.46
AGGCCGTATT	1 ± 0.029
AGGCCGTCCT	1.02 ± 0.1
AGGCCGTCGT	1.043 ± 0.0064
AGGCCTCGGG	1.022 ± 0.0054
AGGCCTGCGG	1.05 ± 0.033
AGGCGAAGCA	0.9923 ± 0.0092
AGGCGACATT	0.9819 ± 0.0056
AGGCGCAAGC	1.07 ± 0.048
AGGCGCCTGG	0.964 ± 0.04
AGGCGGAACT	1.02 ± 0.026
AGGCGGAGTT	0.97011 ± 0.00078
AGGCGGCCGT	0.9889 ± 0.0082
AGGCGGGACA	1.025 ± 0.0082
AGGCGGGGCT	0.97301 ± 0.00064
AGGCGGGGTT	1.01 ± 0.026
AGGCGGTAGC	1.02 ± 0.0037
AGGCGTTGAG	0.976 ± 0.018
AGGCTAAAGG	1 ± 0.026
AGGCTATGTA	0.9998 ± 0.0042
AGGCTGGCTA	1 ± 0.019
AGGCTTAAGA	0.976 ± 0.031

Sequence	switch fluorescence ratio
AGGCTTAATC	0.9903 ± 0.0069
AGGCTTACTC	1.39 ± 0.028
AGGCTTAGG	0.957 ± 0.0032
AGGCTTGCCA	0.9991 ± 0.0016
AGGCTTGTGC	1.01 ± 0.081
AGGCTTTGCA	0.992 ± 0.01
AGGGAAAGGA	0.9889 ± 0.0085
AGGGAAAGTG	0.971 ± 0.02
AGGGAACGGG	1.01 ± 0.055
AGGGAATGTA	0.99 ± 0.016
AGGGAATTTG	1.014 ± 0.0021
AGGGACGCGA	1.26 ± 0.037
AGGGAGAATT	1 ± 0.013
AGGGAGCGGT	1.026 ± 0.0063
AGGGAGCTGT	1.023 ± 0.0015
AGGGAGGAGT	0.988 ± 0.026
AGGGAGGATT	0.965 ± 0.034
AGGGAGGCAG	1 ± 0.033
AGGGAGTCTC	0.98 ± 0.031
AGGGAGTCTT	0.971 ± 0.052
AGGGATAAAG	1.01 ± 0.023
AGGGATAGCT	0.967 ± 0.006
AGGGATCCTA	0.978 ± 0.012
AGGGATCGGT	0.979 ± 0.025
AGGGATGAGA	0.9965 ± 0.0024
